Measurements as given in patent US20240301054A1, “TIM-3 INHIBITORS AND USES THEREOF” (Novartis AG, priority 2019, published 2024).

Target: T1, interaction between TIM-3 and Galectin-9 (Homo sapiens, UniProt Q8TDQ0)
T1 construct: purchased R&D Systems
Assay: Plate-based (MesoScale) competition assay of the TIM-3/Galectin-9 interaction
Assay type: binding
Settings: TIM-3 fusion protein coated at 2 μg/ml; SULFOTag Galectin-9 100 nM; FIG. 1
Experimental: TIM-3 fusion protein (R&D Systems) was coated on a standard MesoScale 96 well plate (Meso Scale Discovery) at 2 μg/ml in PBS (Phosphate Buffered Saline) and incubated for six hours at room temperature. The plate was washed three times with PBST (PBS buffer containing 0.05% Tween-20) and blocked with PBS containing 5% Probumin (Millipore) overnight at 4° C. After incubation, the plate was washed three times with PBST and unlabeled antibody (F38-2E2 (BioLegend); MBG453; MBG453 F(ab′)2; MBG453 F(ab); or control recombinant human Galectin-9 protein) diluted in Assay Diluent (2% Probumin, 0.1% Tween-20, 0.1% Triton X-100 (Sigma) with 10% StabilGuard (SurModics)), was added in serial dilutions to the plate and incubated for one hour on an orbital shaker at room temperature. The plate was then washed three times with PBST, and Galectin-9 labeled with MSD SULFOTag (Meso Scale Discovery) as per manufacturer's instructions, diluted in Assay Diluent to 100 nM, was added to the plate for one hour at room temperature on an orbital shaker. The plate was again washed three times with PBST, and Read Buffer T (1×) was added to the plate. The plate was read on MA600 Imager, and competition was assessed as a measure of the ability of the antibody to block Ga19-SULFOTag signal to TIM-3 receptor.

ability of the antibody to block Ga19-SULFOTag signal to TIM-3 receptor (interaction between TIM-3 and Galectin-9): did not
B1: control Galectin-9 protein: control recombinant human Galectin-9 protein, unlabeled (protein)
chain: AFSGSQAPYLSPAVPFSGTIQGGLQDGLQITVNGTVLSSSGTRFAVNFQTGFSGNDIAFHFNPRFEDGGYVVCNTRQNGSWGPEERKTHMPFQKGMPFDLCFLVQSSDFKVMVNGILFVQYFHRVPFHRVDTISVNGSVQLSYISFQPPGVWPANPAPITQTVIHTVQSAPGQMFSTPAIPPMMYPHPAYPMPFITTILGGLYPSKSILLSGTVLPSAQRFHINLCSGNHIAFHLNPRFDENAVVRNTQIDNSWGSEERSLPRKMPFVRGQSFSVWILCEAHCLKVAVDGQHLFEYYHRLRNLPTINRLEVGGDIQLTHVQT
